The record followed here is US20240141072A1 (published 2024).

First the molecules themselves.
T1: biotinylated human DLL3 protein expressed as a human IgG1 fusion protein (human, UniProt Q9NYJ7 27-492, limits assumed, biotinylated)
T1 sequence: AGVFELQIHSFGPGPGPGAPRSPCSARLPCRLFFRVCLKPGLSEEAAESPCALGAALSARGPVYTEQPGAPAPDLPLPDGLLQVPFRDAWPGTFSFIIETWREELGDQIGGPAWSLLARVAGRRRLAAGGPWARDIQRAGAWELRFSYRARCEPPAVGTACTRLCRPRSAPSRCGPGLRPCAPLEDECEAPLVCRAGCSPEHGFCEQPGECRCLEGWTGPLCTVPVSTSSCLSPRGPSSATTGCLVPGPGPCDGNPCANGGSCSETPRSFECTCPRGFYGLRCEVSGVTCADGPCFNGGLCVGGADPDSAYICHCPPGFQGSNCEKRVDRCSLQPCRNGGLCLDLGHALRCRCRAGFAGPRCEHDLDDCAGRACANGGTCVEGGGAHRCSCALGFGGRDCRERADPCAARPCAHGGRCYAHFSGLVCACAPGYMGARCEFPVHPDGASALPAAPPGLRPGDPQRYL

B1: 3B09 anti-DLL3 trispecific protein (other)
chain: EVQLVESGGGLVQPGGSLTLSCAASGSHVSFLSMAWYRQAPGKKRELVAGISANGSTDYIDSVKGRFTISRDNAKNSVYLQMNSLRAEDTAVYYCYAYRWTTRYAYWGQGTLVTVSS
notes: not shown: linker 1808, anti-albumin sdAb, linker 1808, anti-CD3 fragment, His6 1819
B2: 3C03 anti-DLL3 trispecific protein (other)
chain: EVQLVESGGGLVQPGGSLTLSCAASGSSVRFLSMAWYRQAPGKKRELVAGISRDGSTVYIDSVKGRFTISRDNAKNSVYLQMNSLRAEDTAVYYCYAYRWTTRGTYWGQGTLVTVSS
notes: as for B1
B3: 3B011 anti-DLL3 trispecific protein (other)
chain: EVQLVESGGGLVQPGGSLTLSCAASGSSVSFLSMAWYRQAPGKKRELVAGISADGSADYIDSVKGRFTISRDNAKNSVYLQMNSLRAEDTAVYYCYAYRWVTRYTYWGQGTLVTVSS
notes: as for B1
B4: 3E02 anti-DLL3 trispecific protein (other)
chain: EVQLVESGGGLVQPGGSLTLSCAASGSGVRFLSMAWYRQAPGKKRELVAGISPDGSTDYIDSVKGRFTISRDNAKNSVYLQMNSLRAEDTAVYYCYAYRWTRRYTYWGQGTLVTVSS
notes: as for B1
B5: 3C06 anti-DLL3 trispecific protein (other)
chain: EVQLVESGGGLVQPGGSLTLSCAASGTSVSFLSIAWYRQAPGKKRELVAGISADGSTDYIASVKGRFTISRDNAKNSVYLQMNSLRAEDTAVYYCYAYRWRTRYTYWGQGTLVTVSS
notes: as for B1
B6: 3E03 anti-DLL3 trispecific protein (other)
chain: EVQLVESGGGLVQPGGSLTLSCAASGSSVRFLSMAWYRQAPGKKRELVAGISGDGSTDYIDSVKGRFTISRDNAKNSVYLQMNSLRAEDTAVYYCYAYRWMTRYTYWGQGTLVTVSS
notes: as for B1
B7: 3C05 anti-DLL3 trispecific protein (other)
chain: EVQLVESGGGLVQPGGSLTLSCVASGTSVSFLSMAWYRQAPGKKRELVAGISADGSTTYIDSVKGRFTISRDNAKNSVYLQMNSLRAEDTAVYYCYAYRWTTRRTYWGQGTLVTVSS
notes: as for B1
B8: 3D09 anti-DLL3 trispecific protein (other)
chain: EVQLVESGGGLVQPGGSLTLSCAASGSSVSRLSMAWYRQAPGKKRELVAGISANGSTTYIDSVKGRFTISRDNAKNSVYLQMNSLRAEDTAVYYCYAYRWTTRYRYWGQGTLVTVSS
notes: as for B1
B9: 3C09 anti-DLL3 trispecific protein (other)
chain: EVQLVESGGGLVQPGGSLTLSCAASGSSVSFLSMAWYRQAPGKKRELVAGISADGSTIYIDSVKGRFTISRDNAKNSVYLQMNSLRAEDTAVYYCYAYRWRTRYTYWGQGTLVTVSS
notes: as for B1
B10: 3D02 anti-DLL3 trispecific protein (other)
chain: EVQLVESGGGLVQPGGSLTLSCAASGSSVRFLSMAWYRQAPGKKRELVAGISRDGSTDYIDSVKGRFTISRDNAKNSVYLQMNSLRAEDTAVYYCYAYRWITRYTYWGQGTLVTVSS
notes: as for B1
B11: 3B010 anti-DLL3 trispecific protein (other)
chain: EVQLVESGGGLVQPGGSLTLSCAASGSSVSFLSMAWYRQAPGKKRELVAGISRDGSTDYIDSVKGRFTISRDNAKNSVYLQMNSLRAEDTAVYYCYAYRWVTRYTYWGQGTLVTVSS
notes: as for B1
B12: 3D010 anti-DLL3 trispecific protein (other)
chain: EVQLVESGGGLVQPGGSLTLSCAASGSSKSFLSMAWYRQAPGKKRELVAGISADGSTSYIDSVKGRFTISRDNAKNSVYLQMNSLRAEDTAVYYCYAYRWTTRYTYWGQGTLVTVSS
notes: as for B1
B13: 3C02 anti-DLL3 trispecific protein (other)
chain: EVQLVESGGGLVQPGGSLTLSCAASGSSVRFLSMAWYRQAPGKKRELVAGISADGSTIYIDSVKGRFTISRDNAKNSVYLQMNSLRAEDTAVYYCYAYRWRTRYTYWGQGTLVTVSS
notes: as for B1
B14: 3E09 anti-DLL3 trispecific protein (other)
chain: EVQLVESGGGLVQPGGSLTLSCAASGSSVRFLSMAWYRQAPGKKRELVAGISRDGSTDYIDSVKGRFTISRDNAKNSVYLQMNSLRAEDTAVYYCYAYRWSTRYTYWGQGTLVTVSS
notes: as for B1
B15: 3C01 anti-DLL3 trispecific protein (other)
chain: EVQLVESGGGLVQPGGSLTLSCAASGSSVRFLSMAWYRQAPGKKRELVAGISAHGSTDYIDSVKGRFTISRDNAKNSVYLQMNSLRAEDTAVYYCYAYRWSTRYTYWGQGTLVTVSS
notes: as for B1
B16: 3D05 anti-DLL3 trispecific protein (other)
chain: EVQLVESGGGLVQPGGSLTLSCAASGSSVRFLSMAWYRQAPGKKRELVAGISADGSTDYIDSVKGRFTISRDNAKNSVYLQMNSLRAEDTAVYYCYAYRWTRRYTYWGQGTLVTVSS
notes: as for B1
B17: 3D03 anti-DLL3 trispecific protein (other)
chain: EVQLVESGGGLVQPGGSLTLSCAASGSSVVFLSMAWYRQAPGKKRELVAGISADGSMDYIDSVKGRFTISRDNAKNSVYLQMNSLRAEDTAVYYCYAYRWRTRYTYWGQGTLVTVSS
notes: as for B1
B18: 3D01 anti-DLL3 trispecific protein (other)
chain: EVQLVESGGGLVQPGGSLTLSCAASGSSVSFLSMAWYRQAPGKKRELVAGISRDGSTDYIDSVKGRFTISRDNAKNSVYLQMNSLRAEDTAVYYCYAYRWITRYTYWGQGTLVTVSS
notes: as for B1
B19: 3D011 anti-DLL3 trispecific protein (other)
chain: EVQLVESGGGLVQPGGSLTLSCAASGSSVSRLSMAWYRQAPGKKRELVAGISADGSRDYIDSVKGRFTISRDNAKNSVYLQMNSLRAEDTAVYYCYAYRWTTRYKYWGQGTLVTVSS
notes: as for B1
B20: 3E04 anti-DLL3 trispecific protein (other)
chain: EVQLVESGGGLVQPGGSLTLSCAASGSSVHFLSMAWYRQAPGKKRELVAGISRDGSTDYIDSVKGRFTISRDNAKNSVYLQMNSLRAEDTAVYYCYAYRWTTRYRYWGQGTLVTVSS
notes: as for B1
B21: 3E01 anti-DLL3 trispecific protein (other)
chain: EVQLVESGGGLVQPGGSLTLSCAASGSSVKFLSMAWYRQAPGKKRELVAGISADGSTMYIDSVKGRFTISRDNAKNSVYLQMNSLRAEDTAVYYCYAYRWHTRYTYWGQGTLVTVSS
notes: as for B1
B22: 3D08 anti-DLL3 trispecific protein (other)
chain: EVQLVESGGGLVQPGGSLTLSCAASGSSVRFLSMAWYRQAPGKKRELVAGISANGSTDYIDSVKGRFTISRDNAKNSVYLQMNSLRAEDTAVYYCYAYRWTNRYTYWGQGTLVTVSS
notes: as for B1
B23: 3C08 anti-DLL3 trispecific protein (other)
chain: EVQLVESGGGLVQPGGSLTLSCAASGSSVKFLSMAWYRQAPGKKRELVAGISLDGSTDYIDSVKGRFTISRDNAKNSVYLQMNSLRAEDTAVYYCYAYRWTGRYTYWGQGTLVTVSS
notes: as for B1
B24: 3C011 anti-DLL3 trispecific protein (other)
chain: EVQLVESGGGLVQPGGSLTLSCAASGSSVRFLSMAWYRQAPGKKRELVAGISAHGSTDYIDSVKGRFTISRDNAKNSVYLQMNSLRAEDTAVYYCYAYRWRTRYTYWGQGTLVTVSS
notes: as for B1

The assay has as its target T1, biotinylated human DLL3 protein …. Description: Octet BLI, single 50 nM. The gist of the method: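 Affinities reflect binding of the trispecific constructs, supplied as conditioned medium of known protein concentration rather than purified material, to immobilised human DLL3 fusion protein.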
(Biolayer interferometry detects binding as a change in optical thickness at a sensor tip.)
The term Kd denotes the concentration at which binding is half-saturated. Read a low Kd as tighter binding. Turning to B1, the Kd turned out to be 20 nM. The result for B2 reads 4.9 nM; that for B3, 9 nM; that for B4, 12 nM. To B5 belongs 10 nM; to B6, 20 nM. To B7 belongs 8.2 nM; to B8, 32 nM; to B9, 7.8 nM. B10 returned a Kd of 12 nM. The result for B11 reads 12 nM; that for B12, 14 nM; that for B13, 9.1 nM. The molecule B14 displayed a Kd of 10 nM. The result for B15 reads 14 nM; that for B16, 16 nM; that for B17, 11 nM. Regarding B18, binding was characterised by a dissociation constant (Kd) of 10 nM. Molecule B19 displayed a Kd of 5.3 nM.

Molecule B20 registered a Kd of 11 nM.

The molecule B21 displayed a Kd of 16 nM. To B22 belongs 17 nM; to B23, 5.9 nM.

Molecule B24 registered a Kd of 14 nM.
